The values that follow are results of earlier work, collected in PMC7650819.

For series [1], the target named is thrombin (human plasma) (Homo sapiens) (UniProt P00734+P00734). As to the kind of experiment: literature value. The following applies: AIR; ABB: 50 mM Tris-HCl, 140 mM NaCl, 1 mM MgCl2, 1% BSA, 0.05% Triton X-100, pH 7.4, overnight at 4 °C; aptamers refolded in 5 mM Tris-HCl, 1 M NaCl, 0.5 mM ….
Series [2] has as its target TGF-β1 (Homo sapiens) (UniProt P01137). In words: literature value. The settings on record: DNA with phosphorothioates at positions marked by asterisks: CGCTCGGCTTCACGAGATTCGTGTC*GTTGTGTC*C*TGTA*C*C*C*GC*C*TTGA*C*C*A*GTC*A*C*TC*TA*GA*GC*A*TC*C*GGA*C*TG …; AIR; ABB: 50 mM Tris-HCl, 140 mM NaCl, 1 mM MgCl2, 1% BSA, 0.05% Triton X-100, pH 7.4, overnight at 4 °C; aptamers refolded in 5 mM Tris-HCl, 1 M NaCl, 0.5 mM E.

Chain of TGF-β1 (Homo sapiens) (P01137 279-390): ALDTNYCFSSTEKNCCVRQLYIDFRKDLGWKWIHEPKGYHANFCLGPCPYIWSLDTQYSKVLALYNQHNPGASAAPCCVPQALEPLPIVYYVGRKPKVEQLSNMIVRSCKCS

For the sequence “TTTTTTTTTTTTTTTTTTTTAGTCCGTGGTAGGGCAGGTTGGGGTGACT [Thrombin 29-mer aptamer]”, the Kd in series [1] was 0.0005 µM.

As for “TTTTTTTTTTTTTTTTTTTTCGCTCGGCTTCACGAGATTCGTGTCGTTGTGTCCTGTACCCGCCTTGACCAGTCACTCTAGAGCATCCGGACTG [TGF-β1 thioaptamer]”, in series [2], the Kd is 0.09 µM. Consider “TTTTTTTTTTTTTTTTTTTTGGTTGGTGTGGTTGG [Thrombin 15-mer aptamer]”, for which, in series [1], the Kd is 0.1 µM.
